The target in the assay is yeast SCF^Cdc4 ubiquitin ligase (yeast) (UniProt P52286).

From paper PMC2794717 come the findings set out here.

Chain of UniProt P52286 (P52286 whole entry, chain 1 of 4): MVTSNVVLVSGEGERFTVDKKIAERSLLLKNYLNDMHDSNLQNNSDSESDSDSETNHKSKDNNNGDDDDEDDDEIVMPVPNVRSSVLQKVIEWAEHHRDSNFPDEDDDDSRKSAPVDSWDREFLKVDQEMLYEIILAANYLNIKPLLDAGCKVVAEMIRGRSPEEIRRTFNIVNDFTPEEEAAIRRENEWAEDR
Chain of UniProt P52286 (Q12018 whole entry, chain 2 of 4, further chain): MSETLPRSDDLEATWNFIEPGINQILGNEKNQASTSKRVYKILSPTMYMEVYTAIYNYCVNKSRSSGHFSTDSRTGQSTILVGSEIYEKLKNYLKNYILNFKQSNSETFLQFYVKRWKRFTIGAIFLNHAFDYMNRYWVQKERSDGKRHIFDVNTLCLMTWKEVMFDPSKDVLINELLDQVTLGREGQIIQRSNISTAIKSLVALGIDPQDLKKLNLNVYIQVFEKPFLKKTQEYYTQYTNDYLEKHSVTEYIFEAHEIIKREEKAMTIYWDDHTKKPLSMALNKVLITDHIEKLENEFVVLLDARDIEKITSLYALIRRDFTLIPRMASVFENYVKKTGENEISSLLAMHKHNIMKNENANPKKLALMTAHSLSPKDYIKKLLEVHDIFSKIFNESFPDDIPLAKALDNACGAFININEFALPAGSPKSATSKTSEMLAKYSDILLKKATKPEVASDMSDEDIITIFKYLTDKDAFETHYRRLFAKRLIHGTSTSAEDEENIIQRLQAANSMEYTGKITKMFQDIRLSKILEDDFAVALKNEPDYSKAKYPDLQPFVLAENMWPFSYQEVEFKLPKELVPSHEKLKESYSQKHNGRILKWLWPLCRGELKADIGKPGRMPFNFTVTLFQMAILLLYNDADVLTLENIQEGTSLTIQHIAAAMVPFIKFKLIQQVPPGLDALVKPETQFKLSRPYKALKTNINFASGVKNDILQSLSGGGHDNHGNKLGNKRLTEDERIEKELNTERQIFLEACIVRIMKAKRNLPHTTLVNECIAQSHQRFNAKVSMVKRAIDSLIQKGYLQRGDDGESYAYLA
Chain of UniProt P52286 (P07834 whole entry, chain 3 of 4, further chain): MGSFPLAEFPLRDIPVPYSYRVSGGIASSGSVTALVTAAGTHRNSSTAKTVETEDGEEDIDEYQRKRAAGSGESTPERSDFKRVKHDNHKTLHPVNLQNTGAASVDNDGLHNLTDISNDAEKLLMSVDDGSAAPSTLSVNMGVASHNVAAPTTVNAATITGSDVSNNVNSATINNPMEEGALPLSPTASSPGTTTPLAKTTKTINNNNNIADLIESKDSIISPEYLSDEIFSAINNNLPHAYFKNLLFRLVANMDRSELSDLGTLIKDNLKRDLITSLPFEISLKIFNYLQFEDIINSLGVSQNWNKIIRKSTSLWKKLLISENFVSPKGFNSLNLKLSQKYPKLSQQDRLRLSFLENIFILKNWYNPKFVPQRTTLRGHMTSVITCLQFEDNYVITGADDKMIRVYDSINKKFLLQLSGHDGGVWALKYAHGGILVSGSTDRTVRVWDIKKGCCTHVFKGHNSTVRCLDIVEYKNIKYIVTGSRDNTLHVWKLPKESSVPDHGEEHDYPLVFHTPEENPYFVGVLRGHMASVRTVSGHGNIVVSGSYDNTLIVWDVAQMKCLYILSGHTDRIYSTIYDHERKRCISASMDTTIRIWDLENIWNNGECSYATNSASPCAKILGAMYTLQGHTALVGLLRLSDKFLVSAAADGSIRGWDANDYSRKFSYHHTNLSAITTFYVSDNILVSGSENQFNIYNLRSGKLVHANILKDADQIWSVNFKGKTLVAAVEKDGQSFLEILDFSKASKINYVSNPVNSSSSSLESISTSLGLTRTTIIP
Chain of UniProt P52286 (Q08273 whole entry, chain 4 of 4, further chain): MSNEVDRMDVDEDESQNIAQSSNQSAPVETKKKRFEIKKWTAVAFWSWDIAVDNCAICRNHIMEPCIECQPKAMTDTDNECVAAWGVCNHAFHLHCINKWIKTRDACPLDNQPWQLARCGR

B1: yeast Cdc34-Δ220 (domain or fragment)
chain: MSSRKSTASSLLLRQYRELTDPKKAIPSFHIELEDDSNIFTWNIGVMVLNEDSIYHGGFFKAQMRFPEDFPFSPPQFRFTPAIYHPNVYRDGRLCISILHQSGDPMTDEPDAETWSPVQTVESVLISIVSLLEDPNINSPANVDAAVDYRKNPEQYKQRVKMEVERSKQDIPKGFIMPTSESAYISQSKLDEPESNKDMADNFWYDSDLDDDENGSVILQ
As to B1, the fold increase in Km in Sic1 ubiquitylation reactions, against Cdc34-Δ230 worked out at 3 fold.
